Test results from the RNAGym collection of RNA variant scans (doi:10.7554/elife.80360).

B1: CPEB3 Ribozyme (parent)
chain: GGGGGCCACAGCAGAAGCGUUCACGUCGCGGCCCCUGUCAGAUUCUGGUGAAUCUGCGAAUUCUGCUGU

Variants of: B1
Assay: self-cleavage, relative activity (ratio to wild type); higher = more cleavage; co-transcriptional

| Variant | self-cleavage |
| --- | --- |
| G5U C18A | 0.0315 |
| G5U C22G | 0.09 |
| G5C C54U | 0.219 |
| G5C C54G | 0.143 |
| G5C C35A | 0.0866 |
| C6A G58A | 0.443 |
| C6A G58U | 0.695 |
| G5U C27U | 0.032 |
| G5U C27G | 0.0619 |
| G5C U43G | 0.219 |
| G5C U43C | 0.173 |
| C6A C66U | 0.641 |
| C6A C66G | 0.44 |
| C6A C66A | 0.386 |
| G5C C32G | 0.968 |
| G5U C24G | 0.0967 |
| G5U C24U | 0.0968 |
| G5U C35G | 0.08 |
| G5C U20G | 0.0813 |
| C6A G25A | 0.136 |
| C6A G25C | 0.133 |

| Variant | self-cleavage |
| --- | --- |
| C6A G25U | 0.1 |
| G5C G41A | 0.194 |
| G5C G41C | 0.188 |
| G5C G41U | 0.186 |
| G5U A59U | 0.125 |
| C6A U21C | 0.287 |
| C6A U21A | 0.554 |
| C6A U21G | 0.179 |
| C6A A40G | 0.426 |
| C6A A40U | 0.346 |
| C6A A40C | 0.177 |
| G5U A40C | 0.088 |
| C6A G68A | 0.881 |
| C6A G68C | 0.889 |
| C6A G68U | 0.939 |
| G5C G19U | 0.121 |
| G5C G19A | 0.126 |
| C6A A60C | 0.17 |
| C6A A60G | 0.326 |
| C6A A60U | 0.226 |
| G5C G17A | 0.0588 |

| Variant | self-cleavage |
| --- | --- |
| G5C G17C | 0.0976 |
| C6A A16C | 0.0824 |
| C6A A16G | 0.418 |
| C6A A16U | 0.159 |
| C6A U53C | 0.335 |
| C6A U53G | 0.195 |
| C6A U53A | 0.422 |
| G5U A52U | 0.232 |
| G5U A52G | 0.266 |
| C6A G28U | 0.163 |
| C6A G28C | 0.155 |
| C6A G28A | 0.138 |
| C6A G19A | 0.105 |
| C6A G19C | 0.107 |
| C6A A59G | 0.464 |
| G5C C66U | 0.151 |
| G5U C12U | 0.188 |
| G5U U62A | 0.123 |
| G5U G37U | 0.0584 |
| G5U G37C | 0.119 |
| C6A G31U | 0.986 |

| Variant | self-cleavage |
| --- | --- |
| C6A G31A | 0.775 |
| C6A G31C | 0.762 |
| G5U C57A | 0.11 |
| C6A G17U | 0.119 |
| C6A G17C | 0.115 |
| C6A C22A | 0.165 |
| C6A C22U | 0.0847 |
| C6A U49C | 0.716 |
| C6A U49G | 0.5 |
| G5C G50A | 0.202 |
| G5C G50C | 0.182 |
| G5U U38C | 0.174 |
| C6A G30A | 0.338 |
| C6A G30U | 0.157 |
| G5C G65U | 0.0855 |
| G5C G65A | 0.158 |
| G5C G65C | 0.106 |
| G5U G17U | 0.0412 |
| G5U G17C | 0.0663 |
| G5U G17A | 0.082 |
